Where two headings read alike, the source gives them in different places.
Assays:
Assay in all cases: FRET or BRET
[1] = biological target: the molecule itself
[2] = biological target: the molecule itself; remark: listed apart in the source
[3] = biological target: the molecule itself; remark: listed apart in the source
[4] = biological target: the molecule itself; remark: listed apart in the source
[5] = biological target: the molecule itself; remark: listed apart in the source
[6] = biological target: the molecule itself; remark: listed apart in the source
[7] = biological target: the molecule itself; remark: listed apart in the source

B1: opsin tagged with the fluorescent proteins mTurquoise or SYFP2 (opsin-mTurquoise and opsin-SYFP2, co-expressed) (receptor, UniProt P15409 1-348, looked up)
chain: MNGTEGPNFYVPFSNVTGVVRSPFEQPQYYLAEPWQFSMLAAYMFLLIVLGFPINFLTLYVTVQHKKLRTPLNYILLNLAVADLFMVFGGFTTTLYTSLHGYFVFGPTGCNLEGFFATLGGEIALWSLVVLAIERYVVVCKPMSNFRFGENHAIMGVVFTWIMALACAAPPLVGWSRYIPEGMQCSCGIDYYTLKPEVNNESFVIYMFVVHFTIPMIVIFFCYGQLVFTVKEAAAQQQESATTQKAEKEVTRMVIIMVIFFLICWLPYASVAFYIFTHQGSNFGPIFMTLPAFFAKSSSIYNPVIYIMLNKQFRNCMLTTLCCGKNPLGDDDASATASKTETSQVAPA
In the case of B1, the “stoichiometry N” value [1] is reported as 2, the “tetramer to dimer ratio (ρ)” value [2] is reported as 1.08 and the “tetramer to dimer ratio (ρ)” value [3] is reported as 1.79. The “tetramer to dimer ratio (ρ)” value [4] was 0.401, the “tetramer to dimer ratio (ρ)” value [5] was 484 and the “KD tetramer to higher order oligomers” value [6] was greater than 1150 molecules/μm^2. The “stoichiometry N” value [6] was no less than 12 and the “stoichiometry N” value [7] was 4.

— paper PMC5085863 (The Biochemical journal, 2016)
